Assay results: paper doi:10.1101/402123 (bioRxiv, 2018)
No end group written: not given here. fluorescein = N-terminal fluorescein label

B1: integrin β4 1436-1666 (β4-CS-FnIII-3,4) (domain or fragment, human, UniProt P16144-2 1436-1666, looked up)
chain: LPRDYSTLTSVSSHDSRLTAGVPDTPTRLVFSALGPTSLRVSWQEPRCERPLQGYSVEYQLLNGGELHRLNIPNPAQTSVVVEDLLPNHSYVFRVRAQSQEGWGREREGVITIESQVHPQSPLCPLPGSAFTLSTPSAPGPLVFTALSPDSLQLSWERPRRPNGDIVGYLVTCEMAQGGGPATAFRVDGDSPESRLTVPGLSENVPYKFKVQARTTEGFGPEREGIITIES
B3: fluorescein-labeled BP230 peptide 26-55 (peptide, UniProt Q03001-8 26-55, looked up)
peptide: fluorescein-DSNENLLLVHCGPTLINSCISFGSESFDGH
modifications: cysteine pairing not given here

Columns and labels:
[1] = molecular target: fluorescein-labeled BP230 peptide 26-47 (human) (UniProt Q03001); test: fluorescence polarisation
BP230 41-162 = molecular target: T1, BP230 41-162 (human, UniProt Q03001-8 41-162, Oregon Green 488 on thiol groups); test: fluorescence polarisation
T1 sequence (looked up): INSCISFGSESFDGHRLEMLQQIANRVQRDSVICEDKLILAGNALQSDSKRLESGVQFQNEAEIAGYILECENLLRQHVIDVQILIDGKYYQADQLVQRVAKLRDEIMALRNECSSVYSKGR

BP230 10-162 T39D = molecular target: T2, BP230 10-162 T39D (human, UniProt Q03001-8 10-162, T39D, Oregon Green 488 on thiol groups); test: fluorescence polarisation
T2 sequence (looked up): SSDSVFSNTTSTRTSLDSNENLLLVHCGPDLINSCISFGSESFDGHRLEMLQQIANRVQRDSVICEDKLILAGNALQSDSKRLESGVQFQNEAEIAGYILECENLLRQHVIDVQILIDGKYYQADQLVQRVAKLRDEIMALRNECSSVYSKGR

[2] = molecular target: T3, fluorescein-labeled BP230 peptide 37-55 (human, UniProt Q03001-8 37-55); test: fluorescence polarisation
T3 peptide (looked up): fluorescein-GPTLINSCISFGSESFDGH

[3] = molecular target: B1; test: fluorescence polarisation
[4] = molecular target: T4, β4-CS-FnIII-3,4 (1436-1666) T1663R (human, UniProt P16144-2 1436-1666, T1663R); test: fluorescence polarisation
T4 sequence (looked up): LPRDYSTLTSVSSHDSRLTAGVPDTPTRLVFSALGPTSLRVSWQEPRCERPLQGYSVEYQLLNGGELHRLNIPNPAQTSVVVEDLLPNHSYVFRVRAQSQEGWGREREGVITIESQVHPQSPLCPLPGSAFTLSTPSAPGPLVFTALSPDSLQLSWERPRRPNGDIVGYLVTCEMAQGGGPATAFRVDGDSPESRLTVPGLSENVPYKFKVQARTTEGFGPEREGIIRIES

[5] = molecular target: B3; test: fluorescence polarisation
[6] = molecular target: T5, β4-FnIII-3,4 (1457-1666) mutant T1663R (human, UniProt P16144-2 1457-1666, T1663R); test: crystal structure
T5 sequence (looked up): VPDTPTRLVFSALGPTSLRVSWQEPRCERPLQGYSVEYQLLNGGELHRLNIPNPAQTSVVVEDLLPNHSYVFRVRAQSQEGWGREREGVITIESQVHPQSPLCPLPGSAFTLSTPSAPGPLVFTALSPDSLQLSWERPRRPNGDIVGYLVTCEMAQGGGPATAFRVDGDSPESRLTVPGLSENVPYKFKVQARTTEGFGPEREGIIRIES

B1 was tested, and the fold increase in Kd against the BP230 26-55 peptide [1] was 5 fold, the “fold increase in Kd against the longer BP230 constructs” value (BP230 41-162) was 5 fold and the “fold increase in Kd against WT BP230 10-162” value (BP230 10-162 T39D) was ~3 fold. The “fold increase in Kd against the BP230 26-55 peptide” value [2] was 3 fold.

B2: BP230 10-162 S46A (domain or fragment, human, UniProt Q03001-8 10-162, looked up)
chain: SSDSVFSNTTSTRTSLDSNENLLLVHCGPTLINSCIAFGSESFDGHRLEMLQQIANRVQRDSVICEDKLILAGNALQSDSKRLESGVQFQNEAEIAGYILECENLLRQHVIDVQILIDGKYYQADQLVQRVAKLRDEIMALRNECSSVYSKGR
modifications: Oregon Green 488 on thiol groups
B2: binds [3].

B3: binds [4].

B4: β4-CS-FnIII-3,4 (1436-1666) I1661R/T1663R (domain or fragment, human, UniProt P16144-2 1436-1666, looked up)
chain: LPRDYSTLTSVSSHDSRLTAGVPDTPTRLVFSALGPTSLRVSWQEPRCERPLQGYSVEYQLLNGGELHRLNIPNPAQTSVVVEDLLPNHSYVFRVRAQSQEGWGREREGVITIESQVHPQSPLCPLPGSAFTLSTPSAPGPLVFTALSPDSLQLSWERPRRPNGDIVGYLVTCEMAQGGGPATAFRVDGDSPESRLTVPGLSENVPYKFKVQARTTEGFGPEREGRIRIES
B4 was tested, and the “fold reduction in Kd against WT β4” value [5] was ~8 fold.

B5: β4-CS-FnIII-3,4 (1436-1666) P1576R (domain or fragment, human, UniProt P16144-2 1436-1666, looked up)
chain: LPRDYSTLTSVSSHDSRLTAGVPDTPTRLVFSALGPTSLRVSWQEPRCERPLQGYSVEYQLLNGGELHRLNIPNPAQTSVVVEDLLPNHSYVFRVRAQSQEGWGREREGVITIESQVHPQSPLCPLPGSAFTLSTPSAPGRLVFTALSPDSLQLSWERPRRPNGDIVGYLVTCEMAQGGGPATAFRVDGDSPESRLTVPGLSENVPYKFKVQARTTEGFGPEREGIITIES
In the case of B5, the “fold increase in Kd against WT β4” value [5] is reported as > 2 fold.

DSNENLLLVHCGPTLINSCISFGSESFDGH (peptide, UniProt Q03001-8 26-55, looked up) [unlabeled BP230 peptide 26-55]: binds [6].
